The chains are these.
B1: Dolichol-phosphate mannosyltransferase subunit 3 (Cricetulus griseus (Chinese hamster)), Q4LDX8 (parent)
chain: MTKLAQWLWGLALLGSAWAALTMGALGLELPFPCQEVLWPLPAYLLVSAGCYALGTVGYRVATFHDCEDAARELQSQILEARADLARRGLRF

This experiment covers variants of B1. As to conditions: with dpm1_human DPM1, O60762.
dpm1_human DPM1, O60762, sequence (O60762 whole entry): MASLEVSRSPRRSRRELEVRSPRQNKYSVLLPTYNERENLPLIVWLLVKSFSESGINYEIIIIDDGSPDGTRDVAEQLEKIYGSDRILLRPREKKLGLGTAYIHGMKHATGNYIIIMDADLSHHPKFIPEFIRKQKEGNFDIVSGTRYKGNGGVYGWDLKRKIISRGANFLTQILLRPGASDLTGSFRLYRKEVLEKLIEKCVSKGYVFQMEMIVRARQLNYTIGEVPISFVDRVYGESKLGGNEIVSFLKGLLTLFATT
For the variant L74S;I78T;L85S, the “effect of a mutation on the interaction” value is recorded as “disrupting interaction”.

The values are drawn from IntAct's records for PubMed 16280320.
